Earlier results on one substance are cited in article PMC9241073.

What is called Kd is the constant that tells how readily two partners part at equilibrium.

Data set [1] has as its target PAK1 (Homo sapiens) (UniProt Q13153).
Data set [2] shares this target. The source holds these as a separate data set.

Like-named read-outs stand apart in the source and are kept apart here.

Sequence of UniProt Q13153 (Q13153 2-545): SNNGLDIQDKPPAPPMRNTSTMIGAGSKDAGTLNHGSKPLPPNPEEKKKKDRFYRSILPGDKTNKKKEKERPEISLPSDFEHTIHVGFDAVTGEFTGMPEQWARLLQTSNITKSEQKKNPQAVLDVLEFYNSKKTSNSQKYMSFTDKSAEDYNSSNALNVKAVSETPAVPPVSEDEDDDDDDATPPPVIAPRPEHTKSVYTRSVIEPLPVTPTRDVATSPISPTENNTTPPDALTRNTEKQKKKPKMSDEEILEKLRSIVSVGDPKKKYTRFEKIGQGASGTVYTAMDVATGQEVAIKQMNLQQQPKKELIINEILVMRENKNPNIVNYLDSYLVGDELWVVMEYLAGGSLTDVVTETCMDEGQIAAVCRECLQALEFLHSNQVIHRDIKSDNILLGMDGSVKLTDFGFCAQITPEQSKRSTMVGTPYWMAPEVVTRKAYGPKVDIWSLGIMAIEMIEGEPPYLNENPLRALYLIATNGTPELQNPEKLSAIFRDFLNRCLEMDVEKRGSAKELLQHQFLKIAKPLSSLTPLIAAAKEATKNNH

For the substance CDC42 (from UniProt P60953), the Kd is over 1 µM in data set [1] and over 2 µM in data set [2].
